Measured values reported in the supplement of paper PMC9112550, “Optimization of the antimicrobial peptide Bac7 by deep mutational scanning” (BMC Biology, 2022).

Test system: Escherichia coli TOP10
Experiment: shrunken log2 fold change of peptide-encoding DNA abundance (4.5 h post-induction vs induction); higher = less antimicrobial activity (less host growth inhibition)
Conditions: time post-induction: 4.5 h; library: site-saturation at positions 5, 18, 19, 20
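Further: peptides expressed intracellularly from a pBAD plasmid library in pooled LB shake-flask culture, induced with 0.3% L-arabinose, DNA abundance read by NGS, three biological replicates, DESeq2 with apeglm shrinkage.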

Sequence | shrunken log2 fold change
RRIRKRPPRLPRPRPRPMKDPRP | 0.618
RRIRTRPPRLPRPRPRPMERPRP | 0.0039
RRIRWRPPRLPRPRPRPKQQPRP | -0.133
RRIRARPPRLPRPRPRPMYTPRP | -0.0517
RRIRCRPPRLPRPRPRPMTKPRP | 0.0306
RRIRQRPPRLPRPRPRPLKYPRP | -0.0559
RRIRQRPPRLPRPRPRPLNMPRP | -0.423
RRIRARPPRLPRPRPRPCTDPRP | -0.0325
RRIRARPPRLPRPRPRPDPTPRP | 0.447
RRIRMRPPRLPRPRPRPCGVPRP | 0.714
RRIRWRPPRLPRPRPRPKYGPRP | 0.085
RRIRNRPPRLPRPRPRPQCDPRP | -0.282
RRIRIRPPRLPRPRPRPSAVPRP | -0.306
RRIRERPPRLPRPRPRPDHTPRP | -0.0309
RRIRWRPPRLPRPRPRPEMGPRP | 0.271
RRIRGRPPRLPRPRPRPLMSPRP | 0.271
RRIRCRPPRLPRPRPRPWLDPRP | -0.273
RRIRYRPPRLPRPRPRPKNNPRP | -1.02
RRIRPRPPRLPRPRPRPNWTPRP | 0.218
RRIRQRPPRLPRPRPRPCGWPRP | 0.502
RRIRARPPRLPRPRPRPEPYPRP | 0.34
RRIRPRPPRLPRPRPRPIYKPRP | -0.333
RRIRSRPPRLPRPRPRPIWWPRP | 0.361
RRIRERPPRLPRPRPRPWRTPRP | -0.259
RRIRPRPPRLPRPRPRPRKHPRP | 0.0952

Sequence | shrunken log2 fold change
RRIRKRPPRLPRPRPRPGVNPRP | 0.213
RRIRTRPPRLPRPRPRPEAIPRP | -0.00172
RRIRGRPPRLPRPRPRPIMVPRP | -0.0212
RRIRERPPRLPRPRPRPYVAPRP | -0.72
RRIRCRPPRLPRPRPRPYGDPRP | -0.217
RRIRVRPPRLPRPRPRPKTAPRP | 0.0988
RRIRPRPPRLPRPRPRPHQMPRP | 0.0123
RRIRYRPPRLPRPRPRPAMKPRP | -0.000923
RRIRKRPPRLPRPRPRPHHIPRP | -0.165
RRIRQRPPRLPRPRPRPHTRPRP | 0.107
RRIRHRPPRLPRPRPRPAPYPRP | 0.296
RRIRYRPPRLPRPRPRPFDAPRP | -0.485
RRIRQRPPRLPRPRPRPWQAPRP | 0.124
RRIRMRPPRLPRPRPRPDGFPRP | 0.0516
RRIRCRPPRLPRPRPRPKKHPRP | -0.217
RRIRYRPPRLPRPRPRPYTNPRP | -1.35
RRIRRRPPRLPRPRPRPQPRPRP | 0.5
RRIRNRPPRLPRPRPRPKGIPRP | 0.0346
RRIRKRPPRLPRPRPRPRELPRP | 0.753
RRIRRRPPRLPRPRPRPNCLPRP | 0.312
RRIRFRPPRLPRPRPRPSREPRP | 1.17
RRIRSRPPRLPRPRPRPIPMPRP | -0.0186
RRIRGRPPRLPRPRPRPPMVPRP | 0.277
RRIRLRPPRLPRPRPRPDLKPRP | -0.0789
RRIRKRPPRLPRPRPRPINWPRP | 0.0577

Sequence | shrunken log2 fold change
RRIRIRPPRLPRPRPRPSCHPRP | -0.243
RRIRGRPPRLPRPRPRPDMMPRP | 0.023
RRIRDRPPRLPRPRPRPGLHPRP | -6.57e-05
RRIRSRPPRLPRPRPRPLMMPRP | -0.0355
RRIRYRPPRLPRPRPRPKGMPRP | -0.111
RRIRERPPRLPRPRPRPNKNPRP | 0.0755
RRIRDRPPRLPRPRPRPGCVPRP | 0.616
RRIRYRPPRLPRPRPRPLCVPRP | -0.722
RRIRLRPPRLPRPRPRPDEVPRP | 0.256
RRIRPRPPRLPRPRPRPIYLPRP | -0.379
RRIRKRPPRLPRPRPRPQSSPRP | -0.0228
RRIRARPPRLPRPRPRPSYGPRP | -0.282
RRIRRRPPRLPRPRPRPYYSPRP | -0.532
RRIRRRPPRLPRPRPRPFEMPRP | 0.0983
RRIRSRPPRLPRPRPRPCPWPRP | -0.115
RRIRFRPPRLPRPRPRPSTYPRP | -0.802
RRIRGRPPRLPRPRPRPQPTPRP | 1.02
RRIRFRPPRLPRPRPRPCSFPRP | -0.349
RRIRIRPPRLPRPRPRPWSKPRP | -0.0876
RRIRRRPPRLPRPRPRPTFYPRP | 0.191
RRIRNRPPRLPRPRPRPTHMPRP | 0.0687
RRIRLRPPRLPRPRPRPRNIPRP | -0.424
RRIRERPPRLPRPRPRPICKPRP | -0.215
RRIRKRPPRLPRPRPRPVCEPRP | 0.552
RRIRVRPPRLPRPRPRPRINPRP | -0.07

Sequence | shrunken log2 fold change
RRIRARPPRLPRPRPRPIYAPRP | 0.144
RRIRHRPPRLPRPRPRPPMCPRP | -0.00483
RRIRWRPPRLPRPRPRPWHRPRP | -0.0473
RRIRCRPPRLPRPRPRPIKGPRP | -0.0586
RRIRMRPPRLPRPRPRPELLPRP | 3.52
RRIRIRPPRLPRPRPRPKMWPRP | 1.25
RRIRARPPRLPRPRPRPDMLPRP | -0.0619
RRIRRRPPRLPRPRPRPSPWPRP | 0.335
RRIRGRPPRLPRPRPRPCEFPRP | 0.0669
RRIRNRPPRLPRPRPRPGIWPRP | 0.0115
RRIRYRPPRLPRPRPRPRQYPRP | 0.0153
RRIRWRPPRLPRPRPRPNNQPRP | -0.494
RRIRSRPPRLPRPRPRPQMDPRP | -0.0665
RRIRCRPPRLPRPRPRPPRQPRP | 0.589
RRIRGRPPRLPRPRPRPQMFPRP | 0.612
RRIRPRPPRLPRPRPRPGYPPRP | -0.0289
RRIRVRPPRLPRPRPRPRGQPRP | 0.131
RRIRTRPPRLPRPRPRPLTMPRP | -0.27
RRIRPRPPRLPRPRPRPHSWPRP | 0.069
RRIRIRPPRLPRPRPRPTEWPRP | 0.133
RRIRGRPPRLPRPRPRPFCGPRP | 0.224
RRIRYRPPRLPRPRPRPGCCPRP | -0.309
RRIRKRPPRLPRPRPRPRTAPRP | 0.843
RRIRERPPRLPRPRPRPAGNPRP | -0.0376
RRIRKRPPRLPRPRPRPNMFPRP | -0.155

Sequence | shrunken log2 fold change
RRIRDRPPRLPRPRPRPYSKPRP | 0.0519
RRIRSRPPRLPRPRPRPTTNPRP | 0.00407
RRIRFRPPRLPRPRPRPAEGPRP | 0.234
RRIRARPPRLPRPRPRPIKPPRP | 0.0335
RRIRCRPPRLPRPRPRPYNGPRP | -0.216
RRIRYRPPRLPRPRPRPVDHPRP | -0.328
RRIRTRPPRLPRPRPRPFCPPRP | -0.279
RRIRQRPPRLPRPRPRPRWMPRP | 0.0157
RRIRRRPPRLPRPRPRPMNQPRP | 0.0252
RRIRFRPPRLPRPRPRPTISPRP | -0.611
RRIRRRPPRLPRPRPRPGKNPRP | 0.16
RRIRQRPPRLPRPRPRPEQGPRP | 0.0169
RRIRERPPRLPRPRPRPEETPRP | -0.0248
RRIRKRPPRLPRPRPRPDSCPRP | -0.0303
RRIRDRPPRLPRPRPRPWVCPRP | -0.0108
RRIRGRPPRLPRPRPRPEPPPRP | 1.79
RRIRFRPPRLPRPRPRPINVPRP | -0.195
RRIRARPPRLPRPRPRPCCPPRP | -0.273
RRIRRRPPRLPRPRPRPPNDPRP | 0.605
RRIRCRPPRLPRPRPRPIKWPRP | -0.343
RRIRVRPPRLPRPRPRPFLRPRP | -0.563
RRIRERPPRLPRPRPRPPLKPRP | 0.322
RRIRWRPPRLPRPRPRPWLLPRP | -0.0799
RRIRYRPPRLPRPRPRPYHNPRP | -0.525
RRIRQRPPRLPRPRPRPLEPPRP | -0.227

Sequence | shrunken log2 fold change
RRIRYRPPRLPRPRPRPDEMPRP | 0.0412
RRIRLRPPRLPRPRPRPHYTPRP | -0.118
RRIRCRPPRLPRPRPRPHDHPRP | -0.307
RRIRRRPPRLPRPRPRPHPLPRP | 0.211
RRIRFRPPRLPRPRPRPGWDPRP | 0.0298
RRIRHRPPRLPRPRPRPSSDPRP | -0.529
RRIRIRPPRLPRPRPRPKSQPRP | -0.0352
RRIRDRPPRLPRPRPRPMTCPRP | 0.0184
RRIRWRPPRLPRPRPRPTWVPRP | 0.688
RRIRERPPRLPRPRPRPVDGPRP | 0.222
RRIRTRPPRLPRPRPRPEDGPRP | 0.0244
RRIRKRPPRLPRPRPRPKPKPRP | 0.464
RRIRLRPPRLPRPRPRPVMRPRP | 0.076
RRIRYRPPRLPRPRPRPYKAPRP | 0.019
RRIRERPPRLPRPRPRPPVWPRP | 0.634
RRIRFRPPRLPRPRPRPTKAPRP | 0.0916
RRIRTRPPRLPRPRPRPMVQPRP | 0.0197
RRIRIRPPRLPRPRPRPWGAPRP | 0.0191
RRIRWRPPRLPRPRPRPKHNPRP | -0.152
RRIRSRPPRLPRPRPRPKMSPRP | -0.105
RRIRKRPPRLPRPRPRPCEPPRP | 0.553
RRIRYRPPRLPRPRPRPVCLPRP | -0.365
RRIRERPPRLPRPRPRPPSVPRP | -0.126
RRIRVRPPRLPRPRPRPGVEPRP | 0.243
RRIRCRPPRLPRPRPRPGLGPRP | 0.512
